Experimental data reported in patent publication US20250340613A1 (JOINT STOCK COMPANY BIOCAD, published 2025).

Tests used:
[1] = target: T1, hIL4R-His, Interleukin-4 receptor subunit alpha (Homo sapiens) aa 27-227 (Homo sapiens, UniProt P24394 27-227); experiment: BLI Octet RED 384; antibody on ProA sensor, antigen 30 ug/ml (1154 nM); response at end of association
T1 construct: range 27-227; not shown: His tag as the name implies
T1 sequence (looked up): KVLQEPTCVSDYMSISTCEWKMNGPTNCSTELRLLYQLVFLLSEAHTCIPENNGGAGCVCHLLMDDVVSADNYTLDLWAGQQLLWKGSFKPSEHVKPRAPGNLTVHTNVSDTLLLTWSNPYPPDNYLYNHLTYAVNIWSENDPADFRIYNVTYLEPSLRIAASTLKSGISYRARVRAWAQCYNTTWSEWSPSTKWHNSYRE
Description: (§1) Experimental study of nonspecific binding of bispecific chimeric antibodies to non-target antigens was performed on Forte Bio Octert RED 384. Protein A (ProA) biosensors (ForteBio) were immersed into a solution containing antibodies at a concentration of 10 μg/ml for 150 seconds to immobilize same. The baseline was recorded in a 1×KB solution for 30 seconds. The antibody-loaded sensors were then immersed into wells containing non-target antigens at a concentration of 30 μg/ml for 150 seconds. Complex dissociation was then recorded for 30 seconds.
(§2) The reference sensors went through all the steps as the sensors used to record analyte sensograms did, with the exception of the association step—at the association step, the sensors were immersed in a kinetic buffer solution without analyte (the reference sensor signals were measured in parallel with the recording of the main sensograms). The reference signal was subtracted from the signal received on sensors interacting with the analyte during the processing of sensograms.
(§3) Sensograms were processed using ForteBio Octet Data Analysisn 9.0 software. To report no non-specific interaction, the recorded signal level was checked at the end of the association step (the response parameter).

[2] = target: T2, hisOX40, Tumor necrosis factor receptor superfamily member 4 (Homo sapiens) aa 26-210 (Homo sapiens, UniProt P43489 26-210); experiment: BLI Octet RED 384; antibody on ProA sensor, antigen 30 ug/ml (1310 nM); response at end of association
T2 construct: range 26-210; The tag is put first only because the name begins with His; not shown: His tag as the name implies
T2 sequence (looked up): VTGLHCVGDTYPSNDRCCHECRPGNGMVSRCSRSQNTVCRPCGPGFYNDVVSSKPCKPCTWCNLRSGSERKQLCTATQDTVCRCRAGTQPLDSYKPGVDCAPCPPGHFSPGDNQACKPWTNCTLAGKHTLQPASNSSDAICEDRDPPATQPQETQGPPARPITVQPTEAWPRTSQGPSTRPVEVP
Description: as §1, §2, §3

[3] = target: T3, C-Avi-His-TEVs-HSA_hBCMA, Tumor necrosis factor receptor superfamily member 17 (Homo sapiens) aa 1-54 (Homo sapiens, UniProt Q02223 1-54); experiment: BLI Octet RED 384; antibody on ProA sensor, antigen 30 ug/ml (391.2 nM); response at end of association
T3 construct: range 1-54; not shown: Avi, His, TEV site and HSA parts as the name implies
T3 sequence (looked up): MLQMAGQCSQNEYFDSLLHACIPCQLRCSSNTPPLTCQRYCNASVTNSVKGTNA
Description: as §1, §2, §3

[4] = target: T4, hAng2_H6F, Angiopoietin-2 (Homo sapiens) aa 19-496 (Homo sapiens, UniProt O15123 19-496); experiment: BLI Octet RED 384; antibody on ProA sensor, antigen 30 ug/ml (510.2 nM); response at end of association
T4 construct: also called hAng-H6F; not shown: His and FLAG tags implied by the name 'H6F'
T4 sequence: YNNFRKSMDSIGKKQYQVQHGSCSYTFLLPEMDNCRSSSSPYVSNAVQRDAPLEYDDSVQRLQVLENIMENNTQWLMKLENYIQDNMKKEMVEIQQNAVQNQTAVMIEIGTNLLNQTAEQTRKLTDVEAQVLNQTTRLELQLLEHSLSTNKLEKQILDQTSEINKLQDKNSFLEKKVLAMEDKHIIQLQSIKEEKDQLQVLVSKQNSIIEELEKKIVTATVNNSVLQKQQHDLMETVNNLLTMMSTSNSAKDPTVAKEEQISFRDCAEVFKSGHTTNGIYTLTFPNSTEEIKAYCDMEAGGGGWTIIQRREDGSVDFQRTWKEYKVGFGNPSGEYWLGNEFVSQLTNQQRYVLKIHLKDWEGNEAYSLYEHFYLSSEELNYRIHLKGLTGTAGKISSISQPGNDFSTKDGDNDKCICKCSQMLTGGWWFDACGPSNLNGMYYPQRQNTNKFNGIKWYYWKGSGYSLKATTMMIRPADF
Description: as §1, §2, §3

[5] = target: T5, extracellular domain of the human CSF1R protein (hCSF1R_His) (Homo sapiens, UniProt P07333 20-512); experiment: BLI Octet RED 384; antibody on ProA sensor, antigen 30 ug/ml (522.5 nM); response at end of association
T5 construct: range 20-512; Molecular weight 57.4 kDa; made in CHO cells; also called hCSF1_His; not shown: C-terminal His and FLAG tags
T5 sequence (P07333 20-512 limits assumed): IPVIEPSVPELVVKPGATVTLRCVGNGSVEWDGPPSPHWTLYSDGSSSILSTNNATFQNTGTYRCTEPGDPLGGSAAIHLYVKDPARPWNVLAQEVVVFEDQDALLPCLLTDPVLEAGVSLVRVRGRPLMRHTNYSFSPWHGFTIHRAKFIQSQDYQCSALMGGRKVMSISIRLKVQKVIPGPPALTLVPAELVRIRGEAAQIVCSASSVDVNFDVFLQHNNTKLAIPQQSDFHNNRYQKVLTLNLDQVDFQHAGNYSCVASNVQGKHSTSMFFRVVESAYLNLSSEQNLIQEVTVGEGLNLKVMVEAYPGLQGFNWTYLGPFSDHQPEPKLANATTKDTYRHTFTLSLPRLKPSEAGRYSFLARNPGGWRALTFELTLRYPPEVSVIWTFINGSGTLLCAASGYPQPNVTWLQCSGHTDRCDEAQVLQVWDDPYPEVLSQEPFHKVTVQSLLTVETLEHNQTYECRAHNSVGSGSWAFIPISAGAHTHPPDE
Description: as §1, §2, §3

[6] = target: T6, IL5R-His, Interleukin-5 receptor subunit alpha (Homo sapiens) aa 22-342 (Homo sapiens, UniProt Q01344 22-342); experiment: BLI Octet RED 384; antibody on ProA sensor, antigen 30 ug/ml (757.6 nM); response at end of association
T6 construct: not shown: His tag as the name implies
T6 sequence (looked up): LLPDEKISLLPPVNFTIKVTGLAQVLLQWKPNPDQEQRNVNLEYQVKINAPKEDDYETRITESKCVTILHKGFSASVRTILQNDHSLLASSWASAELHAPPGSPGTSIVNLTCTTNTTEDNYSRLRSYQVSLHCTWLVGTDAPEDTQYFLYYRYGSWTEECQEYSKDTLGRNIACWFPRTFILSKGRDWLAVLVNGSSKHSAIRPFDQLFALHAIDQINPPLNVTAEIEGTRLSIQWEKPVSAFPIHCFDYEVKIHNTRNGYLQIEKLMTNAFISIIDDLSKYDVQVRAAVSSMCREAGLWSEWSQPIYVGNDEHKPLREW
Description: as §1, §2, §3

[7] = target: T7, hCD38-Avi, ADP-ribosyl cyclase/cyclic ADP-ribose hydrolase 1 (Homo sapiens) aa 43-300 (Homo sapiens, UniProt P28907 43-300); experiment: BLI Octet RED 384; antibody on ProA sensor, antigen 30 ug/ml (854.7 nM); response at end of association
T7 construct: range 43-300; not shown: Avi tag as the name implies
T7 sequence (looked up): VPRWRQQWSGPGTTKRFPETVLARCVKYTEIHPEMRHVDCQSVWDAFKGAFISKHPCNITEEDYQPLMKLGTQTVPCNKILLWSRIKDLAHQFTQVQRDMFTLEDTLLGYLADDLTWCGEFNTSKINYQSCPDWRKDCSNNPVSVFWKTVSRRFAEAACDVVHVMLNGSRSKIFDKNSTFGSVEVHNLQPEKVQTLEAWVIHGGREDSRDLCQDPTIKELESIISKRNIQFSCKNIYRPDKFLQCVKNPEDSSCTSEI
Description: as §1, §2, §3

B1: 02-006, bivalent bispecific chimeric antibody that specifically binds to PD1 and CSF1R (bispecific antibody, human IgG1, kappa, L234A L235A)
heavy 1: QVQLVQSGGGLVQPGGSLRLSCAASGFTFSSYWMYWVRQVPGKGLEWVSAIDTGGGRTYYADSVKGRFAISRVNAKNTMYLQMNSLRAEDTAVYYCARDEGGGTGWGVLKDWPYGLDAWGQGTLVTVSSASTKGPSVFPLAPSSKSTSGGTAALGCLVKDYFPEPVTVSWNSGALTSGVHTFPAVLQSSGLYSLSSVVTVPSSSLGTQTYICNVNHKPSNTKVDKRVEPKSCDKTHTCPPCPAPEAAGGPSVFLFPPKPKDTLYITREPEVTCVVVDVSHEDPEVKFNWYVDGVEVHNAKTKPREEQYNSTYRVVSVLTVLHQDWLNGKEYKCKVSNKALPAPIEKTISKAKGQPREPQVCTLPPSRDELTKNQVSLSCAVKGFYPSDIAVEWESNGQPENNYKTTPPVLDSDGSFFLVSKLTVDKSRWQQGNVFSCSVMHEALHNHYTQKSLSLSPGK
light 1: QPVLTQPLSVSVALGQTARITCGGNNIGSKNVHWYQQKPGQAPVLVIYRDSNRPSGIPERFSGSNSGNTATLTISRAQAGDEADYYCQVWDSSTAVFGTGTKLTVLQRTVAAPSVFIFPPSDEQLKSGTASVVCLLNNFYPREAKVQWKVDNALQSGNSQESVTEQDSKDSTYSLSSTLTLSKADYEKHKVYACEVTHQGLSSPVTKSFNRGEC
heavy 2: not shown
light 2: QAGLTQPPSVSVAPGQTARITCGGNNIGSKSVHWYQQKPGQAPVLVVYGDSDRPSGIPERFSGSNSGNTATLTISRVEAGDEADYYCQVWDISSDHVVFGGGTQLTVLQRQVKPEAWLSSGPSPGPGRLQLVCHVSGFYPKPVWVMWMRGEQEQQGTQLGDILPNANWTWYLRATLDVADGEAAGLSCRVKHSSLEGQDIILYWRGSC
notes: Produced in CHO cells
Signal level (nm) [1]: -0.0075 nm | Signal level (nm) [2]: -0.0094 nm | Signal level (nm) [3]: 0.0009 nm | Signal level (nm) [4]: -0.0239 nm | Signal level (nm) [5]: 0.573 nm | Signal level (nm) [6]: 0.0153 nm | Signal level (nm) [7]: 0.0158 nm

B2: 02-008, bivalent bispecific chimeric antibody that specifically binds to CD20 and CSF1R (bispecific antibody, human IgG1, kappa, L234A L235A)
heavy 1: EVQLVESGGGLVQPGGSLRLSCAASGYTFTSYNMHWVRQAPGKGLEWVGAIYPGNGDTSYNQKFKGRFTISVDKSKNTLYLQMNSLRAEDTAVYYCARVVYYSNSYWYFDVWGQGTLVTVSSASTKGPSVFPLAPSSKSTSGGTAALGCLVKDYFPEPVTVSWNSGALTSGVHTFPAVLQSSGLYSLSSVVTVPSSSLGTQTYICNVNHKPSNTKVDKRVEPKSCDKTHTCPPCPAPEAAGGPSVFLFPPKPKDTLYITREPEVTCVVVDVSHEDPEVKFNWYVDGVEVHNAKTKPREEQYNSTYRVVSVLTVLHQDWLNGKEYKCKVSNKALPAPIEKTISKAKGQPREPQVCTLPPSRDELTKNQVSLSCAVKGFYPSDIAVEWESNGQPENNYKTTPPVLDSDGSFFLVSKLTVDKSRWQQGNVFSCSVMHEALHNHYTQKSLSLSPGK
light 1: DIQMTQSPSSLSASVGDRVTITCRASSSVSYMHWYQQKPGKAPKPLIYAPSNLASGVPSRFSGSGSGTDFTLTISSLQPEDFATYYCQQWSFNPPTFGQGTKVEIKRTVAAPSVFIFPPSDEQLKSGTASVVCLLNNFYPREAKVQWKVDNALQSGNSQESVTEQDSKDSTYSLSSTLTLSKADYEKHKVYACEVTHQGLSSPVTKSFNRGEC
heavy 2: not shown
light 2: QAGLTQPPSVSVAPGQTARITCGGNNIGSKSVHWYQQKPGQAPVLVVYGDSDRPSGIPERFSGSNSGNTATLTISRVEAGDEADYYCQVWDISSDHVVFGGGTQLTVLQRQVKPEAWLSSGPSPGPGRLQLVCHVSGFYPKPVWVMWMRGEQEQQGTQLGDILPNANWTWYLRATLDVADGEAAGLSCRVKHSSLEGQDIILYWRGSC
notes: Produced in CHO cells
Signal level (nm) [1]: -0.002 nm | Signal level (nm) [2]: -0.012 nm | Signal level (nm) [3]: -0.0023 nm | Signal level (nm) [4]: -0.0124 nm | Signal level (nm) [5]: 0.548 nm | Signal level (nm) [6]: 0.0098 nm | Signal level (nm) [7]: 0.0028 nm

B3: 02-007, bivalent bispecific chimeric antibody that specifically binds to PD1 and CSF1R (bispecific antibody, human IgG1, kappa, L234A L235A)
heavy 1: QVQLVESGGGLVRPGGSLRLSCAASEFTFDDYAMSWVRQAPGKGLEWVSAISWNGGSTNYADSVKGRFTISRDNAKNSLYLQMNSLRAEDTALYYCASTVEVAHRRLYKYLEVWGQGTLVTVSSASTKGPSVFPLAPSSKSTSGGTAALGCLVKDYFPEPVTVSWNSGALTSGVHTFPAVLQSSGLYSLSSVVTVPSSSLGTQTYICNVNHKPSNTKVDKRVEPKSCDKTHTCPPCPAPEAAGGPSVFLFPPKPKDTLYITREPEVTCVVVDVSHEDPEVKFNWYVDGVEVHNAKTKPREEQYNSTYRVVSVLTVLHQDWLNGKEYKCKVSNKALPAPIEKTISKAKGQPREPQVCTLPPSRDELTKNQVSLSCAVKGFYPSDIAVEWESNGQPENNYKTTPPVLDSDGSFFLVSKLTVDKSRWQQGNVFSCSVMHEALHNHYTQKSLSLSPGK
light 1: QAGLTQPPSVSVAPGQTARITCGGNNIGSKSVHWYQQKPGQAPVLVVYGDSDRPSGIPERFSGSNSGNTATLTISRVEAGDEADYYCQVWDISSDHVVFGGGTQLTVLRTVAAPSVFIFPPSDEQLKSGTASVVCLLNNFYPREAKVQWKVDNALQSGNSQESVTEQDSKDSTYSLSSTLTLSKADYEKHKVYACEVTHQGLSSPVTKSFNRGEC
heavy 2: not shown
light 2: QPVLTQPLSVSVALGQTARITCGGNNIGSKNVHWYQQKPGQAPVLVIYRDSNRPSGIPERFSGSNSGNTATLTISRAQAGDEADYYCQVWDSSTAVFGTGTKLTVLQQRQVKPEAWLSSGPSPGPGRLQLVCHVSGFYPKPVWVMWMRGEQEQQGTQLGDILPNANWTWYLRATLDVADGEAAGLSCRVKHSSLEGQDIILYWRGSC
notes: Produced in CHO cells
Signal level (nm) [1]: 0.0051 nm | Signal level (nm) [2]: -0.0056 nm | Signal level (nm) [3]: 0.0061 nm | Signal level (nm) [4]: -0.0079 nm | Signal level (nm) [5]: 0.537 nm | Signal level (nm) [6]: 0.0221 nm | Signal level (nm) [7]: 0.0088 nm
